Conditions: Saccharomyces cerevisiae (strain ATCC 204508 / S288c), DSC, reversible: yes; for ddG of mutation (higher = less stable) / denaturant m value / denaturant midpoint (higher = more stable) / unfolding free energy: pH 7, 22 °C, GdnHCl, Potassium phosphate 0.1 M; for Tm / change of melting temperature, mutant - wild type (higher = more stable) / unfolding enthalpy (calorimetric): pH 4.6, Thermal, Potassium acetate 0.1 M

Chain of Cytochrome c isoform 1 wild type, P00044 (P00044 whole entry, canonical isoform): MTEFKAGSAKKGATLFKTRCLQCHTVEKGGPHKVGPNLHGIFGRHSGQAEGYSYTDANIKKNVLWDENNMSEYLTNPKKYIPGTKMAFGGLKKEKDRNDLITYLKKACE
Chain of Cytochrome c isoform 1 G12A|N58I, P00044 G12A N58I (P00044 whole entry G12A/N58I, canonical isoform): as the sequence (P00044 whole entry, canonical isoform) above, with G12A, N58I counted along it
Chain of Cytochrome c isoform 1 N58I, P00044 (P00044 whole entry N58I, canonical isoform): as the sequence (P00044 whole entry, canonical isoform) above, with N58I counted along it
Chain of Cytochrome c isoform 1 G12A, P00044 (P00044 whole entry G12A, canonical isoform): as the sequence (P00044 whole entry, canonical isoform) above, with G12A counted along it
Chain of Cytochrome c isoform 1 G12S|N58I, P00044 G12S N58I (P00044 whole entry G12S/N58I, canonical isoform): as the sequence (P00044 whole entry, canonical isoform) above, with G12S, N58I counted along it

Substance	ddG of mutation (higher = less stable) (structure 1YCC)	denaturant m value (structure 1YCC)	denaturant midpoint (higher = more stable) (structure 1YCC)	unfolding free energy (structure 1YCC)	Tm (structure 1YCC)	change of melting temperature, mutant - wild type (higher = more stable) (structure 1YCC)	unfolding enthalpy (calorimetric) (structure 1YCC)	also measured
Cytochrome c isoform 1 G12A, P00044	3.5 kcal/mol	5.4 kcal/mol/M	0.44 M	2.36 kcal/mol	–	–	–	–
Cytochrome c isoform 1 G12A|N58I, P00044 G12A N58I	–	–	–	–	47.4 °C	-1.8 °C	64.7 kcal/mol	–
Cytochrome c isoform 1 G12S|N58I, P00044 G12S N58I	0.31 kcal/mol	4.75 kcal/mol/M	1.17 M	5.55 kcal/mol	–	–	–	–
Cytochrome c isoform 1 N58I, P00044	–	–	–	–	62.2 °C	13 °C	101 kcal/mol	–
Cytochrome c isoform 1 wild type, P00044	–	–	–	–	–	–	–	Tm: 49.2 °C; unfolding enthalpy (calorimetric): 78.8 kcal/mol; denaturant m value: 4.36 kcal/mol/M; denaturant midpoint (higher = more stable): 1.34 M; unfolding free energy: 5.86 kcal/mol
